From patent US20240209088A1
“And” between values parts separate entries of the source, which are not always exact repeats. Equal entries are not always repeated.

Key:
[1] = target: full-length human CD4 on cells (human) (UniProt P01730); assay: flow cytometry of human PBMCs, donor 1, with anti-CD3-FITC; c (nM) ~1
[2] = target: full-length human CD4 on cells (human) (UniProt P01730); assay: flow cytometry of human PBMCs, donor 2, with anti-CD3-FITC; c (nM) ~1
[3] = target: full-length human CD4 on cells (human) (UniProt P01730); assay: flow cytometry of human PBMCs, donor 3, with anti-CD3-FITC; c (nM) ~1
[4] = target: full-length human CD4 on cells (human) (UniProt P01730); assay: flow cytometry of human PBMCs, donor 1, labeled anti-CD4 antibody with anti-CD3-FITC
[5] = target: full-length human CD4 on cells (human) (UniProt P01730); assay: flow cytometry of human PBMCs, donor 2, labeled anti-CD4 antibody with anti-CD3-FITC
[6] = target: full-length human CD4 on cells (human) (UniProt P01730); assay: flow cytometry of human PBMCs, donor 3, labeled anti-CD4 antibody with anti-CD3-FITC
[7] = target: full-length human CD4 on cells (human) (UniProt P01730); assay: flow cytometry of human PBMCs, donor 1, labeled Nb with anti-CD3-FITC
[8] = target: full-length human CD4 on cells (human) (UniProt P01730); assay: as above; remark: listed apart in the source
[9] = target: full-length human CD4 on cells (human) (UniProt P01730); assay: flow cytometry of human PBMCs, donor 2, labeled Nb with anti-CD3-FITC
[10] = target: full-length human CD4 on cells (human) (UniProt P01730); assay: flow cytometry of human PBMCs, donor 3, labeled Nb with anti-CD3-FITC
[11] = target: full-length human CD4 on cells (human) (UniProt P01730); assay: flow cytometry of human PBMCs, donor 1, labeled Nb with anti-CD3-FITC; the same panel in Fig. 8A prints 0.62
[12] = target: full-length human CD4 on cells (human) (UniProt P01730); assay: flow cytometry of human PBMCs, donor 1, labeled Nb with anti-CD3-FITC; the same panel in Fig. 3A prints 0,82

Frequency CD3+ CD4+ (%) [1] [%]	Frequency CD3+ CD4+ (%) [2] [%]	Frequency CD3+ CD4+ (%) [3] [%]	percent of cells in the CD3+ CD4+ quadrant [4] [%]	percent of cells in the CD3- CD4+ quadrant [4] [%]	percent of cells in the CD3+ CD4+ quadrant [5] [%]	percent of cells in the CD3- CD4+ quadrant [5] [%]	percent of cells in the CD3+ CD4+ quadrant [6] [%]	percent of cells in the CD3- CD4+ quadrant [6] [%]	percent of cells in the CD3+ CD4+ quadrant [7] [%]	percent of cells in the CD3+ CD4+ quadrant [8] [%]	percent of cells in the CD3+ CD4+ quadrant [9]	percent of cells in the CD3- CD4+ quadrant [9]	percent of cells in the CD3+ CD4+ quadrant [10]	percent of cells in the CD3- CD4+ quadrant [10]	percent of cells in the CD3- CD4+ quadrant [11] [%]	percent of cells in the CD3- CD4+ quadrant [12] [%]	Substance
32.7	26.2	22.8	33.7	21.7	27	22.4	24.3	43.4	–	–	–	–	–	–	–	–	anti-human CD4 antibody RPA-T4
–	–	–	–	–	–	–	–	–	1.39	0.13	0.03% and 0.26%	0.14% and 0.36%	0.03% and 0.95%	0.16% and 1.36%	0.82	0.62	non-specific fluorescently labeled GFP-binding Nb (VHH)
